Experiments:
[1] = target: Biotinylated UBE3A HECT domain, wild type (METRIS) (human); assay: METRIS (mechanically transduced immunosorbent assay, rolling magnetic probes); biotinylated ubiquitin on streptavidin-coated ferromagnetic beads rolling on avidin-coated slides coated with biotinylated UBE3A HECT domain; rotating magnetic field 1 Hz for 5 s; read-out rolling parameter (dimensionless)
[2] = target: Biotinylated UBE3A HECT domain Q588E (METRIS) (human); assay: as above

Row | Substance | rolling parameter (ζ) [1] | rolling parameter (ζ) [2]
1 | Biotinylated Cys-ubiquitin (ubiquitin variant with an N-terminal cysteine) on streptavidin-coated ferromagnetic particles (from UniProt P0CG48 1-76) | 0.178 | 
2 | Biotinylated Cys-ubiquitin (ubiquitin variant with an N-terminal cysteine) on streptavidin-coated ferromagnetic particles (from UniProt P0CG48 1-76) (natural protein) |  | 0.247
